Results from publication PMC5384750 (PLoS ONE, 2017).
Values joined by “and” are separate entries in the source; they are usually repeats but may differ in a detail not shown here. Equal entries are not always repeated.

Experiments:
[1] = target: IDE (S10 extract or rIDE) (Homo sapiens, UniProt P14735); assay type: in vitro ADME; settings: 30 ng vp6, 5 μg S10 extract, up to 60 min; Western blot densitometry; at least 3 independent experiments
Protocol: Fig 9 Multiplication of PTAPPA-motifs stabilizes p6. 20 ng of sp6 or 30 ng of vp6 were incubated either with 5 μg S10 extract (A/B/C) or 2 ng of rIDE (D) for up to 60 min. Degradation efficiency was quantified via densitometric analyses of Western blots. Values represent the arithmetic mean ± SD of at least 3 independent experiments for each setting.
Typically 5 μg S10 were incubated with inhibitor or buffer and 20–100 ng sp6 at 37°C for 30 min. Reactions were stopped by addition of sample buffer and incubation at 95°C for 5 min. Remaining p6 was detected by Western blotting using an anti-p6 rabbit antiserum. Alternatively, 10 ng of BODIPY FL-labeled sp6 (sp6BY) were used as substrate and detected directly in the polyacrylamide gel by fluorescence scanning. In some experiments the amount of p6 was densitometrically quantified with the software AIDA (Raytest). For the in vitro degradation of amyloid-β 10 ng of Aβ-FITC (abcam) were used analogously to sp6BY. For the in vitro degradation of viral p6, VLPs were pelleted and lysed in IDE enzyme buffer (150 mM NaCl, 50 mM Tris pH 7.4, 0.5% (v/v) Triton X-100). The p6 content was estimated by Western blotting using a dilution series of sp6 with known concentrations. Equivalents of 15 ng were used for digestion experiments and subsequently detected by Western blotting. […]

purified mammalian IDE = settings: purified mammalian IDE; cited from earlier work
[2] = target: T1, insulin-degrading enzyme (IDE) (Homo sapiens, UniProt P14735); test: Inhibition of Aβ-FITC degradation in S10 extract; assay type: biochemical; settings: titration; 10 ng Aβ-FITC, 5 μg S10, 45 min, 37°C; fluorescence
T1 construct: endogenous in cells; host or cells: HeLa cells (cytosolic S10 extract)
Protocol: […] Reactions were stopped by addition of sample buffer and incubation at 95°C for 5 min. Remaining p6 was detected by Western blotting using an anti-p6 rabbit antiserum. Alternatively, 10 ng of BODIPY FL-labeled sp6 (sp6BY) were used as substrate and detected directly in the polyacrylamide gel by fluorescence scanning. In some experiments the amount of p6 was densitometrically quantified with the software AIDA (Raytest). For the in vitro degradation of amyloid-β 10 ng of Aβ-FITC (abcam) were used analogously to sp6BY. For the in vitro degradation of viral p6, VLPs were pelleted and lysed in IDE enzyme buffer (150 mM NaCl, 50 mM Tris pH 7.4, 0.5% (v/v) Triton X-100). The p6 content was estimated by Western blotting using a dilution series of sp6 with known concentrations. Equivalents of 15 ng were used for digestion experiments and subsequently detected by Western blotting. Experiments carried out with recombinant IDE (Calbiochem) were performed in IDE enzyme buffer. Recombinant FITC-labeled insulin was purchased from Sigma.
Supplementary file pone.0174254.s003.tif: S3 Fig p6 competes with the in vitro degradation of Aβ. […] Aβ-FITC was detected by measurement of fluorescence excitation. The band marked with * represents Aβ-oligomers and has been described earlier. (B) Band intensities were quantified for four independent experiments and values represent the arithmetic mean ± SD. […]

[3] = tested on: X4-tropic HIV-1NL4-3 3xPTAPPA mutant; test: HIV-1 replication capacity in activated PBMCs (RT activity, AUC); assay type: cell-based; settings: 50 μg/ml insulin or 10 μM 6bK, permanent treatment; PHA-IL2-stimulated PBMCs from 3 different donors
Protocol: (§1) For infection, PBMCs were isolated from buffy coats of several blood donors and stimulated with PHA and IL-2 for three days. 1×10^6 PBMCs were incubated overnight with virus preparations equivalent to 0.031 ng of p24, and cell culture supernatant was collected every second or third day post infection (dpi). […] Virus replication was assessed by quantification of the virus-associated RT activity by [^32P]-TTP incorporation, using an oligo(dT)-poly(A) template as described elsewhere. In case of replications with inhibitor treatment, cell viability was determined in parallel by WST-1 assay (Roche) according to the manufacturer’s instructions on the last day of replication. For estimation of the multiplicity of infection (MOI), infectious units of virus stocks were determined by TCID50 end point titration in activated PBMCs. The number of HIV-1 target cells was estimated to be 50% of total PBMCs as reported in [93]. The MOI was calculated as the ratio of infectious units per target cells and was ~10^−4 in case of 0.031 ng p24 of input virus.
(§2) To determine the replication capacity of HIV-1 following infection with the indicated HIV-1 variants, the respective replication profiles were depicted as diagram (y-axis: RT activity; x-axis: dpi) and the area under curve was calculated and defined as the corresponding replication capacity of the HIV-1 variants. In every experiment the replication capacity of the untreated wt was set to 100% and compared with the indicated variants. Viability of treated cells was assessed on the last day of replication by the water-soluble tetrazolium method. All conditions were not found to diminish cell viability.

R5-tropic HIV-1NL4-3 = test: as above; assay type: cell-based; settings: 50 μg/ml insulin or 10 μM 6bK, permanent treatment; PHA-IL2-stimulated PBMCs from 3 different donors
Protocol: as §1, §2

X4-tropic HIV-1NL4-3 wt = test: as above; assay type: cell-based; settings: continuous treatment with 50 μg/ml insulin; PHA-IL2-stimulated PBMCs from 3 different donors; MOI ~10^−4; untreated wt = 100%
Protocol: as §1, §2

recombinant IDE (rIDE) = target: T2, recombinant IDE (rIDE) (Rattus norvegicus, UniProt P35559); test: Inhibition of rIDE-mediated degradation of sp6BY; assay type: biochemical; settings: 10 ng rIDE, 10 ng sp6BY, 30 min, 37°C; TPEN 1 mM, NEM 1 mM, insulin 100 μg/ml
T2 construct: purchased Calbiochem
T2 sequence (P35559 whole entry): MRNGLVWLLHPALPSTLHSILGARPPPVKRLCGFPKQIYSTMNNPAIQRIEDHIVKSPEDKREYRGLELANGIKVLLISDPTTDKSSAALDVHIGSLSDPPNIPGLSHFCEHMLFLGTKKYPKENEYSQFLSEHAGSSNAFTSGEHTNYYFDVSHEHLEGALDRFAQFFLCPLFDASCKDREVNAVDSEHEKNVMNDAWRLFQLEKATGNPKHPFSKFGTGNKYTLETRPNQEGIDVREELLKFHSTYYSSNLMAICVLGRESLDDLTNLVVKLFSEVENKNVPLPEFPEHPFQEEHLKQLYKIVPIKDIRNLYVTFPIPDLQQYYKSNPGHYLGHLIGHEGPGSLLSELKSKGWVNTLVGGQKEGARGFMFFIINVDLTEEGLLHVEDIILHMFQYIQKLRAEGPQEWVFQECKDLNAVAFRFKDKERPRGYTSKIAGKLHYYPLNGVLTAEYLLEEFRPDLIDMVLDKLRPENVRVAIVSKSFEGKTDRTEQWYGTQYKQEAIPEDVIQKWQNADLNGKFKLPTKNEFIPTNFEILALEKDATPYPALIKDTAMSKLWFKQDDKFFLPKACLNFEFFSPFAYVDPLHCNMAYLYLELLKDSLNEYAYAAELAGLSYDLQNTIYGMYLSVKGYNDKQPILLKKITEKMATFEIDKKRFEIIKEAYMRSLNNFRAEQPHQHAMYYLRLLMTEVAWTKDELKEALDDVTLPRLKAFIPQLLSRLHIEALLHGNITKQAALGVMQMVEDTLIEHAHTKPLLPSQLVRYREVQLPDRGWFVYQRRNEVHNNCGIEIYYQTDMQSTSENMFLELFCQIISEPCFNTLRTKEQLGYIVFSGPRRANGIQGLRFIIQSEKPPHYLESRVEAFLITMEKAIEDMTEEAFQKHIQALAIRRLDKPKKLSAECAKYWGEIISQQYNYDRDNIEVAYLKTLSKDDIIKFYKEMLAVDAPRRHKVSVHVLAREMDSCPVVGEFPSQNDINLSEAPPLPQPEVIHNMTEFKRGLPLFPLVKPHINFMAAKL
Protocol: Fig 6 IDE is sufficient and required for the in vitro degradation of sp6 and vp6. (A) 10 ng sp6BY were incubated with 5 μg S10 extract from HeLa cells, either untransfected or transfected with control or IDE-specific siRNA, for 0, 10, 30 or 90 min at 37°C. (B) sp6BY was detected by fluorescence emission and quantified. (C) VLP lysates from HEK293T cells were incubated with S10 from siRNA treated cells described in A. Viral proteins were detected as described in Fig 1. (D) Western blot analyses of the S10 extract used in A and C. The membrane was stained with antibodies specific for IDE, HSP70, and β-actin. […] (F) VLP lysates were incubated with 10 ng rIDE for 30 min.
Typically 5 μg S10 were incubated with inhibitor or buffer and 20–100 ng sp6 at 37°C for 30 min. Reactions were stopped by addition of sample buffer and incubation at 95°C for 5 min. Remaining p6 was detected by Western blotting using an anti-p6 rabbit antiserum. Alternatively, 10 ng of BODIPY FL-labeled sp6 (sp6BY) were used as substrate and detected directly in the polyacrylamide gel by fluorescence scanning. In some experiments the amount of p6 was densitometrically quantified with the software AIDA (Raytest). For the in vitro degradation of amyloid-β 10 ng of Aβ-FITC (abcam) were used analogously to sp6BY. For the in vitro degradation of viral p6, VLPs were pelleted and lysed in IDE enzyme buffer (150 mM NaCl, 50 mM Tris pH 7.4, 0.5% (v/v) Triton X-100). The p6 content was estimated by Western blotting using a dilution series of sp6 with known concentrations. Equivalents of 15 ng were used for digestion experiments and subsequently detected by Western blotting. Experiments carried out with recombinant IDE (Calbiochem) were performed in IDE enzyme buffer. Recombinant FITC-labeled insulin was purchased from Sigma.

[4] = tested on: X4-tropic field isolate HIV-1 BK132; test: HIV-1 replication capacity in activated PBMCs (RT activity, AUC); assay type: cell-based; settings: 50 μg/ml insulin or 10 μM 6bK, permanent treatment; PHA-IL2-stimulated PBMCs from 3 different donors (S6 Fig)
Protocol: as §1, with “The number of HIV-1 target cells was estimated to be 50% of total PBMCs as reported in [93].” left out
as §2, with “In every experiment the replication capacity of the untreated wt was set to 100% and compared with the indicated variants.” left out, “All conditions were not found to diminish cell viability.” left out

Molecule | degradation kinetics of vp6 mutants in S10 [1] | Km (purified mammalian IDE) [µM] | kcat (purified mammalian IDE) [s⁻¹] | effect on degradation of Aβ-FITC [2] | effect on replication capacity of the IDE-insensitive 3xPTAPPA mutant [3] | effect on replication capacity of R5-tropic HIV-1 (wt and 3xPTAPPA) (R5-tropic HIV-1NL4-3) | reduction of HIV-1 replication (replication capacity, AUC of RT activity) (X4-tropic HIV-1NL4-3 wt) | stabilization of sp6 in the presence of rIDE (recombinant IDE (rIDE)) | effect on replication capacity of HIV-1 BK132 compared with HIV-1NL4-3 [4]
CC[C@H](C)[C@H](NC(=O)[C@@H]1CCCN1C(=O)[C@H](CCC(=O)O)NC(=O)[C@H](CCC(N)=O)NC(=O)[C@H](CCCCN)NC(=O)[C@H](CCC(N)=O)NC(=O)[C@H](CO)NC(=O)[C@@H]1CCCN1C(=O)[C@@H](NC(=O)[C@@H](NC(=O)[C@@H](NC(=O)[C@H](CCC(=O)O)NC(=O)[C@H](CCC(=O)O)NC(=O)CNC(=O)[C@H](Cc1ccccc1)NC(=O)[C@H](CCCNC(=N)N)NC(=O)[C@H](Cc1ccccc1)NC(=O)[C@H](CO)NC(=O)[C@H](CCC(=O)O)NC(=O)[C@H](C)NC(=O)[C@@H]1CCCN1C(=O)[C@@H]1CCCN1C(=O)[C@H](C)NC(=O)[C@@H](NC(=O)[C@H](CC(C)C)NC(=O)[C@H](C)NC(=O)[C@@H]1CCCN1C(=O)[C@@H]1CCCN1C(=O)[C@H](C)NC(=O)[C@@H](NC(=O)[C@@H]1CCCN1C(=O)[C@H](CCC(=O)O)NC(=O)[C@@H]1CCCN1C(=O)[C@H](CCCNC(=N)N)NC(=O)[C@H](CO)NC(=O)[C@H](CCC(N)=O)NC(=O)[C@@H](N)CC(C)C)[C@@H](C)O)[C@@H](C)O)[C@@H](C)O)[C@@H](C)O)[C@@H](C)O)C(=O)N[C@@H](CC(=O)O)C(=O)N[C@@H](CCCCN)C(=O)N[C@@H](CCC(=O)O)C(=O)N[C@@H](CC(C)C)C(=O)N[C@@H](Cc1ccc(O)cc1)C(=O)N1CCC[C@H]1C(=O)N[C@@H](CC(C)C)C(=O)N[C@@H](C)C(=O)N[C@@H](CO)C(=O)N[C@@H](CC(C)C)C(=O)N[C@@H](CCCNC(=N)N)C(=O)N[C@@H](CO)C(=O)N[C@@H](CC(C)C)C(=O)N[C@@H](Cc1ccccc1)C(=O)NCC(=O)N[C@@H](CO)C(=O)N[C@@H](CC(=O)O)C(=O)N1CCC[C@H]1C(=O)N[C@@H](CO)C(=O)N[C@@H](CO)C(=O)N[C@@H](CCC(N)=O)C(=O)O [PL] | comparable to their 2x and 3x counterparts | – | – | – | – | – | – | – | –
insulin | – | 0.066 | 0.025 | resulted in a stabilization of Aβ-FITC | insensitive to insulin treatment | insensitive to exogenous insulin | ~ 50% and 50% | stabilized sp6 | same impact
